According to patent US20220056142A1 (Sanofi, published 2022):

Target: WT PRCs (mouse, UniProt Q61851)
Assay: cell-based or functional assay

B1: KC18_Hu44 (antibody, human IgG1, kappa, V domains shown)
VH: EVQLVQSGAEVKKPGATVKLSCKASGDTFTDFEIHWVQQAPGKGLEWIGDVDPETGGTAYAEKFQGRATLTADRSTDTAYLELSSLRSEDTAVYYCTRTYDGYPYAFDYWGQGTLVTVSS
VL: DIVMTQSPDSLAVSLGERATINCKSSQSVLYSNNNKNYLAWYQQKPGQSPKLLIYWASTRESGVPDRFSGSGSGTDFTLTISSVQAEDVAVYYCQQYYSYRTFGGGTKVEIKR
**Q.** With B1 as the binder, how does the “IC50, inhibition of FGF18-stimulated Erk phosphorylation (pErk/Erk ratio %, HTRF), 'Hu44 on WT PRCs'” value read?
**A.** Its value is 0.32 µg/ml.
